T1: intact chondroadherin (CHAD) polypeptide, human
T1 sequence: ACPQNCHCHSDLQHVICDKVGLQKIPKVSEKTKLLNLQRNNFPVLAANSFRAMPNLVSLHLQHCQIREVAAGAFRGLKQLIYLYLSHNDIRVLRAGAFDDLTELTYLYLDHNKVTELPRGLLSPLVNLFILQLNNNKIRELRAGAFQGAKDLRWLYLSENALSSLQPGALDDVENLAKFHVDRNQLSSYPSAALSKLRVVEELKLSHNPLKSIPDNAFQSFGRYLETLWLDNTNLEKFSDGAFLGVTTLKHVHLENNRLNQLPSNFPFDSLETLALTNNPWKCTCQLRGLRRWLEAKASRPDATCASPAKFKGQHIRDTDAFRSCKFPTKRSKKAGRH


Tested on: T1, intact chondroadherin (CHAD) polypeptide, human

MMP-12, sequence (P39900 106-470): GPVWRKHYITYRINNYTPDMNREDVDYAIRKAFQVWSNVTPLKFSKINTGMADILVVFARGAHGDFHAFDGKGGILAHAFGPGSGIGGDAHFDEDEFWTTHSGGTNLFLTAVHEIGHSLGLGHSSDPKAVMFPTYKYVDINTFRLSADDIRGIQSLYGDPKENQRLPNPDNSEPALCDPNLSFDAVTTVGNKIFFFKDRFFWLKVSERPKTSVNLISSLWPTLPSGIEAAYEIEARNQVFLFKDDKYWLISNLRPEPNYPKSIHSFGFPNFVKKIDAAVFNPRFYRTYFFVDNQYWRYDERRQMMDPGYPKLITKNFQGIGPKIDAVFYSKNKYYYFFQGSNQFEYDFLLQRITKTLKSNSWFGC

| Molecule | CHAD fragmentation after protease digestion of normal disc tissue (SDS-PAGE, immunoblot) |
| --- | --- |
| ADAMTS5 | digestions performed with ADAMTS4 and ADAMTS5 also did not generate CHAD fragments |
| MMP-3 | Digestion with MMPs 3, 7, 12 and 13, showed no evidence of CHAD fragments retained in the tissue |
| MMP-12 | Digestion with MMPs 3, 7, 12 and 13, showed no evidence of CHAD fragments retained in the tissue |
| MMP-13 | Digestion with MMPs 3, 7, 12 and 13, showed no evidence of CHAD fragments retained in the tissue |
| Recombinant cathepsin B | Digestions performed with cathepsins B and L showed extensive degradation of CHAD |
| Recombinant cathepsin L | Digestions performed with cathepsins B and L showed extensive degradation of CHAD |
| Recombinant cathepsin K (enzyme, UniProt P43235 115-329, looked up, species assumed) Cathepsin K: APDSVDYRKKGYVTPVKNQGQCGSCWAFSSVGALEGQLKKKTGKLLNLSPQNLVDCVSENDGCGGGYMTNAFQYVQKNRGIDSEDAYPYVGQEESCMYNPTGKAAKCRGYREIPEGNEKALKRAVARVGPVSVAIDASLTSFQFYSKGVYYDESCNSDNLNHAVLAVGYGIQKGNKHWIIKNSWGENWGNKGYILMARNKNNACGIANLASFPKM | cathepsin K generated a CHAD fragment large enough to be retained in the gel and similar in size to that generated in situ |
| ADAMTS4 (enzyme, UniProt O75173 213-837, looked up, species assumed) A disintegrin and metalloproteinase with thrombospondin motifs 4: FASLSRFVETLVVADDKMAAFHGAGLKRYLLTVMAAAAKAFKHPSIRNPVSLVVTRLVILGSGEEGPQVGPSAAQTLRSFCAWQRGLNTPEDSDPDHFDTAILFTRQDLCGVSTCDTLGMADVGTVCDPARSCAIVEDDGLQSAFTAAHELGHVFNMLHDNSKPCISLNGPLSTSRHVMAPVMAHVDPEEPWSPCSARFITDFLDNGYGHCLLDKPEAPLHLPVTFPGKDYDADRQCQLTFGPDSRHCPQLPPPCAALWCSGHLNGHAMCQTKHSPWADGTPCGPAQACMGGRCLHMDQLQDFNIPQAGGWGPWGPWGDCSRTCGGGVQFSSRDCTRPVPRNGGKYCEGRRTRFRSCNTEDCPTGSALTFREEQCAAYNHRTDLFKSFPGPMDWVPRYTGVAPQDQCKLTCQAQALGYYYVLEPRVVDGTPCSPDSSSVCVQGRCIHAGCDRIIGSKKKFDKCMVCGGDGSGCSKQSGSFRKFRYGYNNVVTIPAGATHILVRQQGNPGHRSIYLALKLPDGSYALNGEYTLMPSPTDVVLPGAVSLRYSGATAASETLSGHGPLAQPLTLQVLVAGNPQDTRLRYSFFVPRPTPSTPRPTPQDWLHRRAQILEILRRRPWAGRK | digestions performed with ADAMTS4 and ADAMTS5 also did not generate CHAD fragments |
| MMP-7 (enzyme, UniProt P09237 95-267, looked up, species assumed) Matrilysin: YSLFPNSPKWTSKVVTYRIVSYTRDLPHITVDRLVSKALNMWGKEIPLHFRKVVWGTADIMIGFARGAHGDSYPFDGPGNTLAHAFAPGTGLGGDAHFDEDERWTDGSSLGINFLYAATHELGHSLGMGHSSDPNAVMYPTYGNGDPQNFKLSQDDIKGIQKLYGKRSNSRKK | Digestion with MMPs 3, 7, 12 and 13, showed no evidence of CHAD fragments retained in the tissue |

— patent US20160091500
